Reference: patent US20160201045A1, “Endo-xylanase and Coding Gene and Use Thereof” (SHANGHAI INSTITUTES FOR BIOLOGICAL SCIENCES CHINESE ACADEMY …, priority 2013, published 2016)
Several values for one entry are separate records, joined by “and”; a condition that tells them apart may be missing. Equal values may be shown once.

Legend:
Type in all cases: biochemical
[1] = Residual activity under pulp bleaching conditions (alkaline pH, high temperature); conditions: 50-70, pH8-9, one to two hours
Procedure: In a 100 μl reaction system, birch xylan was added to a final concentration of 1% (w/w), and Na2HPO4/NaH2PO4 buffer (pH7.0) was added to a final concentration of 100 mM. A suitable amount of enzyme solution diluted by the abovementioned buffer was added to the reaction system for reaction at 50[…] for 10 minutes. 100 μl DNS were added to stop the reaction. For the control, 100 μl DNS were firstly added to the above reaction system before adding the enzyme solution. The reaction mixtures were subjected to a boiled water bath for 5 minutes to develop color. Absorbance value at 540 nm was detected by a microplate reader. After subtracting the absorbance value of the control from that of the sample, the enzymatic activity unit (U) was calculated based on the standard curve. […]

[2] = Detection on the optimum temperature
Procedure: (§1) In a 100 μl reaction system, birch xylan was added to a final concentration of 1% (w/w), and Na2HPO4/NaH2PO4 buffer (pH7.0) was added to a final concentration of 100 mM. A suitable amount of enzyme solution diluted by the abovementioned buffer was added to the reaction system for reaction at 50[…] for 10 minutes. 100 μl DNS were added to stop the reaction. For the control, 100 μl DNS were firstly added to the above reaction system before adding the enzyme solution. The reaction mixtures were subjected to a boiled water bath for 5 minutes to develop color. Absorbance value at 540 nm was detected by a microplate reader. After subtracting the absorbance value of the control from that of the sample, the enzymatic activity unit (U) was calculated based on the standard curve.
Enzymatic activity was detected according the above standard enzymatic activity detection steps at pH 7.0 and a temperature in the range of 25-80° C. The optimum temperature of Xyl7 was in the range of 50-55° C., with an activity at 50[…] slightly higher than that at 55[…]. Thus, the specific activity value of the enzyme at 50[…] was used as a reference value and its relative activity was defined as 100%. The relative activity of the enzyme at each temperature was a ratio between the specific activity value of the enzyme at each temperature and the reference value.

[3] = Hydrolysis of Xyl7 on different substrates (DNS method); conditions: substrate 2% (w/w), pH7.0, 50, 10 minutes
Procedure: as §1
Various substrates with a final concentration of 2% (w/w) were treated by a suitable amount of enzymes at pH7.0 and 50[…] for 10 minutes. Enzymatic activity was tested according to the above standard enzymatic activity detection steps. […] No detectable enzymatic activity was found for the other test substrates. This was consistent to the high substrate specificity of xylanase of the GH11 Family.

[4] = Specific activity of the xylanase on beech xylan (DNS method); conditions: pH7.0, 50° C., 10 minutes
Procedure: (§2) Enzymatic activity of the endo-1,4-β-xylanase was tested by a DNS method as follows:
(§3) 10 g NaOH were weighed and dissolved in about 400 ml ddH2O. 10 g dinitrosalicylic acid, 2 g phenol, 0.5 g anhydrous sodium sulfite and 200 g potassium sodium tartrate tetrahydrate were weighed and dissolved in about 300 ml ddH2O. The two solutions were mixed, diluted to 1 liter and preserved in dark.
(§4) 100 μl DNS were added into each of the above standard samples. The mixtures were subjected to boiled water bath for 5 minutes for developing color. Absorbance value at 540 nm was detected by a microplate reader. Standard sample 1 was a blank control. The absorbance value of the blank control was subtracted from that of each sample and then the standard curve was plotted.
In a 100 μl reaction system, birch xylan was added to a final concentration of 1% (w/w), and Na2HPO4/NaH2PO4 buffer (pH7.0) was added to a final concentration of 100 mM. A suitable amount of enzyme solution diluted by the abovementioned buffer was added to the reaction system for reaction at 50[…] for 10 minutes. 100 μl DNS were added to stop the reaction. […] Absorbance value at 540 nm was detected by a microplate reader. After subtracting the absorbance value of the control from that of the sample, the enzymatic activity unit (U) was calculated based on the standard curve. […]

[5] = Detection on temperature tolerance
Procedure: as §1
The Xyl7 enzyme solution was stored in a buffer having an optimum pH 7.0 at different temperatures (55° C., 50° C., 45° C.) or at 50° C. with addition of 70 mM mercaptoethan for different times (15 min, 30 min, 45 min, 60 min, 75 min). Enzymatic activity was tested according to the above standard enzymatic activity detection steps (enzymatic activity was tested after reacting at pH7.0, 50° C. for 10 minutes). The enzyme solution which was not subjected to heat treatment was used as a control. Its specific activity tested under pH 7.0, 50° C. was used as a reference value and its relative activity was defined as 100%. The relative activity of the treatment group was a ratio between the relative activity value obtained after storing at different temperatures for different times (treatment conditions) and the reference value. […] After storing at these temperatures for 45 min, the enzymatic activity decreased to be less than 50% of the maximum activity.

[6] = Residual activity under feed additive conditions (acidic pH, 37° C.); conditions: pH 4-5, 37° C., 15-60 minutes
Procedure: as §1
As a feed additive, xylanase is required to retain its enzymatic activity in a pH environment of about 4 due to the acidic environment in the stomach of livestock, such as pig, and retain its enzymatic activity in a pH environment of about 6 due to the weak acidic environment in the digestive tract of chicken. Therefore, Xyl7 was tested for its residual enzymatic activity after treated in pH4 or pH5 at a 37° C. bath for 15, 30, 45 and 60 minutes. The residual enzymatic activity was a ratio between the specific activity of the enzyme obtained after various treatments and that of the un-treated enzyme.

[7] = Standard enzymatic activity detection (DNS method) on birch xylan; conditions: substrate 2% (w/w), pH7.0, 50, 10 minutes
Procedure: as §2, §3, §4, §1
Definition of enzymatic activity unit (U): 1U refers to the amount of enzyme required for catalytically hydrolyzing xylan to produce 1 μmol xylose.
Definition of specific activity unit: enzymatic activity of 1 mg protein (U/mg).
Various substrates with a final concentration of 2% (w/w) were treated by a suitable amount of enzymes at pH7.0 and 50[…] for 10 minutes. Enzymatic activity was tested according to the above standard enzymatic activity detection steps. […] No detectable enzymatic activity was found for the other test substrates. […]

[8] = Detection of the optimum pH
Procedure: as §1
Buffers having different pH values in the range of 3.5-10 in a gradient of 0.5 unit were prepared, wherein NaAc with a final concentration of 100 mM was used to prepare the buffers having a pH in the range of 3.5-6.0, Na2HPO4/NaH2PO4 with a final concentration of 100 mM was used to prepare the buffers having a pH in the range of 6.0-8.0, and Tris-HCl with a final concentration of 100 mM was used to prepare the buffers having a pH in the range of 8.0-10.0. The enzyme solution was added into each pH buffer system and the enzymatic activity was tested according to the above standard enzymatic activity detection steps. […]

[9] = pH 7.0, % of the maximum activity

B1: Xyl7: endo-1,4-β-xylanase of 505 amino acids, SEQ ID NO:2, from termite gut metagenome, expressed in E. coli with His tag (protein)
chain: MKKLIALSFIAAFFAPLFAQGPTWTTSTIQAYNGYDYELWNQNNAGTVSMKLTGDNGSGASAVGGTFTATWSNTQNVLFRSGKKWGSSSNQNHTQIGNMSINFAATWSSTDNVKMLGVYGWAYFTSANVPTKQENGTNASFSNQIEYYIIQDRGSYNPASGGTNAKKYGSATIDGIAYDFYVCDRINQPMLTGNGNFKQFFSVPQSASAHRTSGTISVSQHFNKWHELGMKMDGPLYEVAMKVESYTGSGSSNGSATVTKNLLTIGGTTPTPSSNSGGTTSSSSRASSSSRASSSSNAAVQATTCKTPLITYPTSTVPSDPYTACFKYTDDKCYVCKVENEGEFEGNMNTCGSGWVWDGTQIDNNLRDGYWYQEVPCPAGSSSSRSSSSSVAVSSSSRSSSSSVAASSSSRSSSSSASVSSSSEETPIRVLHTIPSKFRVRSLNNGALQIESNADVVLYLYDTKGKMAQKIEAPTGSSIVKLSVPAGIYIVRNVQTKEKLRVMVR
modifications: His tag; Intestinal tract metagenome of termite
Question: What does the source list for B1?
Answer: residual enzymatic activity at high temperature in alkaline environment [1]: retain a sufficiently high enzymatic activity; optimum temperature ([2]; pH 7.0, 25-80° C. tested): 50-55 °C; retained activity in the range of 30-60° C. ([2]; pH 7.0, % of the highest activity (50)): ≥ 50%; Specific Activity on barley dextran [3]: 0 U/mg; Specific Activity on carboxymethyl cellulose sodium [3]: 0 U/mg; Specific Activity on laminarin [3]: 0 U/mg; Specific Activity on locust bean gum [3]: 0 U/mg; Specific Activity on microcrystalline cellulose powder [3]: 0 U/mg; Specific Activity on beech xylan [4]: 6340 U/mg and 6340 ± 48 U/mg; Specific Activity on beech xylan ([4]; listed as xylanase of the present disclosure): higher than 6340 U/mg; effect of 70 mM mercaptoethan on loss of activity during storage ([5]; pH 7.0, 50° C., 70 mM mercaptoethan added): decrease rate of the enzymatic activity was further reduced; activity after storing at 50° C. and 45° C. for 45 min [5, 9]: less than 50%; activity after storing at 55° C. for 15 min [5, 9]: less than 50%; residual enzymatic activity in acidic environment [6]: retain a sufficiently high enzymatic activity; Specific Activity on birch xylan [7]: 4700 ± 57 U/mg; optimum pH ([8]; buffers pH 3.5-10, 50): 7.0; relative activity in the pH range of from 5.5 to 10 ([8]; relative to activity at pH7.0, 50): ≥ 50%
